The values below come from article PMC10279719 (Nature Communications, 2023).

What all share (conditions): both partners purified
Assay [1] concerns the target T1, PEAK3 tandem-pS69 peptide (residues 54-74) (human, N-terminal acetyl; phosphoserine at S69; C-terminal amide).
T1 construct: source: synthetic peptide, bought: Mimotopes (95% purity)
T1 peptide: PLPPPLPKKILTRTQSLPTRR
Put plainly: ITC; binary; peptide in the cell (20 µM, or 16.8 µM after a buffer titration), protein in the syringe; 25 °C, 20 mM HEPES pH 7.4, 150 mM NaCl, 1 mM TCEP; single binding site model.

For assay [2], the target named is T2, PEAK3 tandem peptide, non-phosphorylated (residues 54-74) (human, N-terminal acetyl; C-terminal amide).
T2 construct: source: synthetic peptide, bought: Mimotopes (95% purity)
T2 peptide: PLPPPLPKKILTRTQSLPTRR
The description is as above.

The target of assay [3] is T2, PEAK3 tandem peptide, …. Put plainly: ITC; second of two sequential titrations ('ternary'); CrkII NSH3 (400 µM) in the syringe titrated into the non-phosphorylated PEAK3 tandem peptide (16.8 µM) with the 14-3-3γ of the first titration, which did not bind, still in the cell; 25 °C, 20 mM HEPES pH 7.4, 150 mM NaCl, 1 mM TCEP.
For assay [4], the target named is T3, PEAK2^IDR1 (residues 802-1406), from insect cells, phosphorylated by Src (human, UniProt Q86YV5 802-1406, phosphorylated with Src kinase, sites not stated; phosphorylation of the tandem site 14-3-3 motif (RAASSP) found by proteomic analysis; biotin (EZ-Link NHS-PEG4-Biotin, 1:1 molar ratio)).
T3 construct: human PEAK2 (SgK223, PRAG1), UniProt Q86YV5, residues 802-1406; also called PEAK2-IDR1 (+ Src phosphorylation); source: Sf21 insect cells, purified; phosphorylated in vitro with recombinant Src kinase domain
T3 sequence (looked up): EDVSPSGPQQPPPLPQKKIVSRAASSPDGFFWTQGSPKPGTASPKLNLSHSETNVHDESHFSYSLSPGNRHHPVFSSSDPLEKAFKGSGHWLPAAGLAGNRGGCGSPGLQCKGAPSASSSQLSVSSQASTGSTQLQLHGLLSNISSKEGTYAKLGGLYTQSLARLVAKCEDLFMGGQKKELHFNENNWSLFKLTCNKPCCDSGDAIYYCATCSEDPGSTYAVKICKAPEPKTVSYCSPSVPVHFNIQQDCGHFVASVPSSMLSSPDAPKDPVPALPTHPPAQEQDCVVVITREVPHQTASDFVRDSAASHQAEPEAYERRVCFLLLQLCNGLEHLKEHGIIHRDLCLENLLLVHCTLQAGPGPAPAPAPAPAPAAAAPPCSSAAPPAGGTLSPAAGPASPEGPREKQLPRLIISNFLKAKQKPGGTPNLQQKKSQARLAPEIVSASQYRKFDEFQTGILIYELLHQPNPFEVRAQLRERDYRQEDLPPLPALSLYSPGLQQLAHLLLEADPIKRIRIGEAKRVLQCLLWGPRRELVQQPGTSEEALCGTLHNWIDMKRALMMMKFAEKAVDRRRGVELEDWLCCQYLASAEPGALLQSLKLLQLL
Put plainly: SPR; biotinylated PEAK proteins (with or without Src phosphorylation) captured with a biotin CAPture kit, CrkII NSH3 as analyte; Biacore 8K+, 20 °C, HBS-TP (150 mM NaCl); 1 M NaCl regeneration; steady state.

Assay [5] deals with T4, full length PEAK3 (PEAK3^FL, residues 1-473), from E. coli, phosphorylated by Src (human, UniProt Q6ZS72 1-473, phosphorylated with Src kinase (Y24 is the site shown for PEAK3^FL by MS/MS); other Src sites not stated; biotin (EZ-Link NHS-PEG4-Biotin, 1:1 molar ratio)).
T4 construct: also called PEAK3-FL E.coli (+ Src phosphorylation); source: E. coli C41 (DE3), purified; phosphorylated in vitro with recombinant Src kinase domain
T4 sequence (looked up): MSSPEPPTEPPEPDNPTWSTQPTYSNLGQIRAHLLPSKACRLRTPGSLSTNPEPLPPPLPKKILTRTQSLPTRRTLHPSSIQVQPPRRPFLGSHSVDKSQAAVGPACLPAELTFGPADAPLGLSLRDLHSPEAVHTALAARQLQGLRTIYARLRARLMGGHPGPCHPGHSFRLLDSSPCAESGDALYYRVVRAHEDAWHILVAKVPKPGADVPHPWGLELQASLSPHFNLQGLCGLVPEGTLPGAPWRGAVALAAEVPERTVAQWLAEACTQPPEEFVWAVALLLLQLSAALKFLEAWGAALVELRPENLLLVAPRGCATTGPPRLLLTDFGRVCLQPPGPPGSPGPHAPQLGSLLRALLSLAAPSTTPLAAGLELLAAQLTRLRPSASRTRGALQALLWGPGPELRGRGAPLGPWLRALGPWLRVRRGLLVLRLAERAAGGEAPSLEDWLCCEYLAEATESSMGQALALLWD
Described as above.

Assay [6] addresses T5, PEAK2^IDR1 (residues 802-1406), from insect cells (human, UniProt Q86YV5 802-1406, phosphorylation of the tandem site 14-3-3 motif (RAASSP) found by proteomic analysis; biotin (EZ-Link NHS-PEG4-Biotin, 1:1 molar ratio)).
T5 construct: human PEAK2 (SgK223, PRAG1), UniProt Q86YV5, residues 802-1406; Purifies as a homodimer
T5 sequence (looked up): T3 sequence (looked up)
The description is as above.

B1: CrkII N-terminal SH3 domain (CrkII^NSH3, residues 134-191) (domain or fragment, human, UniProt P46108-1 134-191, looked up)
chain: AEYVRALFDFNGNDEEDLPFKKGDILRIRDKPEEQWWNAEDSEGKRGMIPVPYVEKYR
notes: human CrkII NSH3 domain, UniProt P46108-1, residues 134-191; Amine coupled to a CM5 chip in a2; analyte in a4; in the syringe in ITC
In the case of B1, the figures for the “stoichiometry N” value in assay [1], in assay [2] and in assay [3] were 0.823, 0.904 and 0.654, respectively. The Kd in assay [4] was 5.2 µM; in assay [5], 13.1 µM; in assay [6], 4.79 µM.
